Assay: label from the status in PepcDB records

Row | Sequence | protein production
1 | MSNDNGVSRRQFMKTSALAAGGLLLACHLPLGRRDAAAATAEAFTPNAFLHIGTDERVTVIVNKSEMGQGVYTSLPMLVAEELCCDWKRVTFRPSPVAPEYNHTQFGPIMVTGGSTSVRSEWSRLSLAGAAAREMLIAAAAQEWRVEPAACRAEKGFVLGPGGRKLSFGTLAPKAASLPVPKEPKLKPGAKTLLGKPLKRLDSPAKIKGTAVFGIDVRAPGMLTALIARPPVFGGTVKGFDAAKAKAVPGVLDVVAVDAGVAVVADGFWPALKGREALAISWDEGDGARVSTDAMREEYARLAATPGAVARKDGDAPAELAKAARRFEAEYEVPYLAHATMEPLNCFVDLQSDSCLIRTGSQFQTGDRNAAARVAGLKPEQVTLETTFLGGGFGRRACPASDFVIEAVQVAKTVGKPVMVIRTREDDMRAGFYRPLWRDRVAACLDGRGYPLAWHHCIVGQSIMIGTPFEAMIRNGIDDTSVEGAADTPYAIPNLQVELHSPRNPVPVLWWRSVGHSHTAFVVESFLDELAHAAGKDPYQYRRALLAKHPRHLKVLETAARKAGWGKPLPKGRGRGIAVHESFGSFIAQVAEVSLSGDGRIRVHRVVCAVDCGRIVNPDTIEAQMESGITFGLSAALHGAITLRNGRVEQGNFDDYPLVRMAEMPTVEVHIVLSGEDPGGIGEPGVPPIAPAVANALFAASGIRVRSLPLTPETVKRAGGRAA | failed
2 | MSGTKLEDSPPCRNWSSASELNETQEPFLNPTDYDDEEFLRYLWREYLHPKEYEWVLIAGYIIVFVVALIGNVLVCVAVWKNHHMRTVTNYFIVNLSLADVLVTITCLPATLVVDITETWFFGQSLCKVIPYLQTVSVSVSVLTLSCIALDRWYAICHPLMFKSTAKRARNSIVIIWIVSCIIMIPQAIVMECSTVFPGLANKTTLFTVCDERWGGEIYPKMYHICFFLVTYMAPLCLMVLAYLQIFRKLWCRQIPGTSSVVQRKWKPLQPVSQPRGPGQPTKSRMSAVAAEIKQIRARRKTARMLMVVLLVFAICYLPISILNVLKRVFGMFAHTEDRETVYAWFTFSHWLVYANSAANPIIYNFLSGKFREEFKAAFSCCCLGVHHRQEDRLTRGRTSTESRKSLTTQISNFDNISKLSEQVVLTSISTLPAANGAGPLQNW | failed
3 | MSGSSHYPVANWNLDGIVSGLRGARQEWRGPRGRLREESESGVREFPSQESLRDIMRQLFGALFPMRLGPIDLREEVEDFYVGHTIGAALDALLHQVCLELQHLGRDDPQPYGQVLERAVDIVRRFGAELPAVRKALDLDVTAAYQGDPAARSVDEVLLCYPGVTAMIHHRLANVLYRLGAPMLARIVAEIAHSDTGIDIHPGATIGRSFFIDHGTGVVIGETAIIGERVRLYQMVTLGAKRFPPGENGELKKGLPRHPIIEDDVVIYAGATILGRITIGQGSTIGGNVWLTHSVPPNSTVTQAGAINDMPDCGLGGLEHHHHHH | failed
4 | METKGEPYSEPCEFFNSILTGSVSRKMRLPRMGIRNFIGTSRLHFAKRAFHAQAAVDEDSRYGALLSIKEYPPFTGPGMLDGLLQVNHEFILTQSFTLADKPIAQERITRLQRQIRASDEAGTSVESDINFALDSMLNQEAVFGFHHFSLLCISRDLEGLSRCVSELGACLTDMNINWLREDLNLEAAFWAQLPGNHSYIARKAMLSSSNFSGLSSMHNFASGQAERTHWGLPITILETTSQTPYWFNFHRRDIGHFTVTGPTGSGKTVGLSFLLAQAMRVSPTPRAVFFDKDRGAEIFVRAIGGSYEILSPGTPTGFNPLQLENTGPNREFLQRLLKAMLGGRDRRDFTQEDEDIIERAVVRLMEEPAQQRNLTNLGNLLMGRARADANDLYSRLRPWTEGEKAWLFNAPHDVLSFSGRTVFGFDMTSILGNEELRTPALMYLYHRLDELLDGNPVMFFMDEGWQLLLDETFSAFIVDKMKTIRKLNGIVGFGTQSAADIAKSKVSHTLIEQSSTNIHFPNPRADEESYIKRFGLTVKEYNFIKNTPPEKRTFLIKHGNDSVIARLDLSSMPDLVKVLSGRKETIEECAALREQYGDEPENWLAKFCGWENAELEHHHHHH | not failed
5 | MDRFLVKGAQGGLLRKQEEQEPTGEEPAVLGGDKESTRKRPRGEAPGNGGHSAGPSWRHIRAEGLDCSYTVLFGKAEADEIFQELEKEVEYFTGALARVQVFGKWHSVPRKQATYGDAGLTYTFSGLTLSPKPWIPVLERIRDHVSGVTGQTFNFVLINRYKDGCDHIGEHRDDERELAPGSPIASVSFGACRDFVFRHKDSRGKSPSRRVAVVRLPLAHGSLLMMNHPTNTHWYHSLPVRKKVLAPRVNLTFRKILLTKK | failed
6 | MDTMSQILKLLEKTDSIEINEFRMDVDELELTIMPTLQNVVQKVVEKQIEAKKEFESQIEFKYPVKDYAGKVNEVKLGGKNRKTVKLGGQTSLYRFEEPQPNAPTVTFDVFDIPMNGLPRPIKENFEDVMHSPGEWAQKAVKEFGADMITLHLIGTDPKVKDKSLKDAAKDLEEVLQAVKVPLVIGGSGNPKKDPLVLEMAAEVADGERCLLASANLDLDYQKIAQAAVKHDHAVLSWAISDINMQKVLNKALMKEGLTANDIVMDPTTCALGYGIEFSIDVMTRTRLSALKGDEILQMPMSSGTTNAWGSREAWMKKDEWGPTKYRGPIWEVVTGLTMMLCGVDIFMMLHPLSVKTLKEIGTTLTYEYKSKESQDISDWINKF | not failed
7 | MAKRVFIGATGQNCGKTTMSVSLMHLARQKYDRVGFIKPIGPKIEGYNGLTVDMDAILMARTFGLEEDLPLMNPVSLHKNFTRDFLSGKLDCNVLKTKILEAFEILDKKYDFLIIEGAGHGGVGSVIGLSNACVAHTLNAPVIIVTDSGIGSSIDAVHLNLALYEKEDADVRMLLVNKLRADKRESILSFLGKGFPGRPLKISGGFNYSPILANPTLSHIGKLLNLPVHGDPDGQSRIIHHIHLGAASAQRVVDALQESTLIVITSSRDELIVTLSSLYHIPAFREKIVGLVIAGHIPASEISQQILDDSNIPYIRVHDSTANVFTTLMEDVAKITAEDQEKLNWIRANAENEIDFEAIDALLLEHHHHHH | failed
8 | DRLRAFNHRLQNTPESVKVLRDWNMELDKNVTEVQGRIIGQQNIVFHNGKVPAGENADWQRHFRDQRMLTTPSDGLDRWAVIAPQRNSHELRTLLDSLYR | failed
9 | MNNGRRIGLIMIITGATLWGLSGPMIQWLFQHTNVSSIDFLTIRLLLAGIFILSFLLIKKQNIFQIWKHPRHSIQLIIFSILGMLGAQYAFIETVHISNAVTATLFQFLGPVFITIYVAFEQRKFPASMQLLAIITALTGTYFIITNGSIENIVLSKEAIIFGLLTAIGFAFYTLHPASLIKECGTTLVIGWGMLIGGIALLICNRSFGWHELSQTFTTKTFSMLILIIISGTLSFLLYIGSLKYLAATETSILSSIEPLVAAIVSIAWLNESFGAYQLLGGVCIVLSVIFLTMPQKENEPAFTSEQI | failed
10 | GSGLDVKNLVDAIVTAEITPSQVRHDKQLNSVNTELSALGQLKSYLTNLQTSLAKLSSLSQFYTMKSTISDPNYFSATLGTGATKNTYQIEIQKLAQQHS | failed
11 | MSFVECPYHSPAERLVAEADEGGPSAITGMGLCFRCLLFSFSGRSGVEGGRVDLNVFGSLGLQPWIGSSRCWGGPCSSALRCGWFSSWPPPSKSAIPIGGGSRGAGRVSRWPPPHWLEAWRVSPRPLSPLSPATFGRGFIAVAVIPGLWARGRGCSSDRL | failed
12 | SKYQLGMLHFSTQYDLLHNHLTVRVIEARDLPPPISHDGSRQDMAHSNPYVKICLLPDQKNSKQTGVKRKTQKPVFEERYTFEIPFLEAQRRTLLLTVVDFDKFSRHCVIGKVSVPLCEVDLVKGGHWWKALIP | not failed
13 | MLSYCPNIFYLIMTTLCLVIQTGCSPAQDHVHSQLHSSISVTDRDGNTVQLNQPARRIVCLFEASVDDLYMLGAGKSIIGIPAKIYTSSDLYRAYSILDRRIYEKKIATPSNWEASTNIESVVALQPDLVIVSAGQKDVIQILNRMHIPVYSVLSENLQQTRKELLDLGKLTGKSQRASELVEFIDHEIQAIQQRNHTQSDQKTIYYGWSGGRIFSTSGRDSMPNTVMTLAGAHNVVNTAIDQPNVNPEKLIEWNPDVILLWNTNPKQIYQRSELKTLTAVKQQHVFNLSPSFLFNPHTPKILLAANQLNHWVYPAPHSDQAATQDKLRILTQFYGKTAAEQLIQYANDVTKE | failed
14 | NELEKGNDGSGTVDPVNASTLVNVYSDKSGSEASLLVGDVLVKDSRTLTLNVPAACEKVYMKYNTVSGTEATKEFALSPVSRGVDQSTGFNFETNRLASVTLALPEDAVQPTNETDQGYLFYHNTGVVMFEDGWPIQLDSWYDEDFNDVVFEYDLKVTECHSQQMMETVGGKEELLLTLDVRAVGGIYPTVLGVVLDGLKSEYVDRITASLILKGGQGTMTDLAKEELSTKNIVKVENKNWNWSNDTRKEPRFAILTVDKAQAEGTVITLDGLTSLMDNNQDMFQVTQGKVREGLPMLRAEVRLIGKEGLTGAERDAQLAAFRELILDTNRQNFFIKVNGGKEIHMRGYAPTSAYKAEYEALVAGDTTLDANVYYSNTKGSTWGVKLPVGTRHAYERVPFREAYPDFTKWVDSKGVSNQKWYENFVDEKTIRYW | not failed
15 | VIWNQLDARERLERQNDLFRRAQKLANIGAWEYEVSSGEVFWTRQVREIHGLPQGYEPTAEEAIAAYHPEDQPVIQGMIERAVEEEVPFDRELRLGGEALPVGHEQKEGRWVRARGTPQIEAGEVTSVRGTFQDITERKAREHVLENEREALRSMYRITADREAGFEEKARRLIDLGREHLGLPYGFLTRITDETQEIVFASGTHPLLQPGESCPLSRSYCRNTIQEERSLVVQDAVAEGWAGDPAHQTFELGAYVGAQIIVEGELYGTFCFAAEEPREQAFAGRERVFVELMAQWASYELGQRRAKAQLKRQNARLDSFAGLVAHDLRNPLNVATGRLRLAREER | failed
16 | MKNRALLLIDFQKGIESPTQQLYRLPAVLDKVNQRIAVYRQHHAPIIFVQHEETELPFGSDSWQLFEKLDTQPTDFFIRKTHANAFYQTNLNDLLTEQAVQTLEIAGVQTEFCVDTTIRMAHGLGYTCLMTPKTTSTLDNGHLTAAQIIQHHEAIWAGRFLTFLSL | not failed
17 | MQKRVVILLLDSFGIGASEDAKDFGDLGANTLGNIAKACFNNLADSNDRSGALKLPYLESLGLGLSALKAANELPLGFQSQPNLIGAYAYAQELSSAKDTISGHWEMMG | failed
18 | HQIVHVRGDSETDLEALFNAVMNPKTANVPQTVPMRLRKLPDSFFKPPEPKSHSRQASTDAGTAGALTPQHVRAHSSPASLQLGAVSPGTLTPTGVVSGPAATPTAQHLRQSS | failed
19 | MTRKKLNLSYITNESMRKATFNKRKKGLVKKIHELSVLCGIEACAVIYSPFNSNPEVWPSNSEVKNVMENFEMLTKLEQEKKMVSHEGFIRQNISKTMESNNKKMIDNAERTMKEAMFQLLSGKGEKLNLTDRNREDLCKYIDQYLKELYHHKNKTINQSHIEPGESSGATNAMTPTSVVENPNFNHLSHNQYQYQQQFGYPILVQDGIYNPSQIQNQHEEWLDDHMMNHSKEISHPLMDDNNFYYQQP | not failed
20 | MADSIKSSNSFQKLDNIDAKETSTVDRKWVALTAYQPVDVVTKTVEVPIIKTVEKYVPKTIIQEKIIHVPKNVTHIVEKIVEVPEVKYIEKIVEVPHIHYKNKYVPKIEIVEKVVERQKIIEKWHDKIVEVPQIKEVVRFKQIEDSEEIIKYVPRNSKNIDWEDEYKKYTESKGLQRYSLDQNNIYQQANSFNQFNENAYNQNAFNRSYELLNKQSSVKSQNNASGENFSQMNFYNQYSGANFEQERSIQASNFEPSGSMQLKRLSSEEIKPAGCCSAACT | failed
21 | SLSTVNIKSTGVTSTELAEIGEHQSEMPGVKVGTSWTRSYPNGTDLSSVLGTVTTEKQGLPSDSIKTLLAEGYSRDDSVGQSQLEKQYENVLRGTKSQTEVKTQDGVIQKEIKKYGGQKGDNVQLTIN | failed

From a protein production outcome set (Wang et al. 2014)
